This assay has as its target T1, His-tagged recombinant Pit, wild type (Pit^WT) (Drosophila melanogaster, UniProt Q9VD51 1-680).
T1 construct: also called His-tagged Pit; pBH4-Pit; source: E. coli BL21, purified (Ni-NTA, size-exclusion chromatography on Superdex 200); not shown: 6×His, N-terminal, kept
As to the kind of experiment: pull-down; His-tagged Pit (5 µM) as bait with purified HP1a as prey (5 µM; titrated from 50 to 5 µM); 20 mM sodium phosphate, 50 mM NaCl, 10 mM imidazole, 4 °C; captured on Ni-NTA magnetic beads; western blot; background control beads + HP1a only. To be noted: both partners purified. For orientation: In western blotting, separated proteins are transferred to a membrane and probed.

T1 sequence (Q9VD51 whole entry): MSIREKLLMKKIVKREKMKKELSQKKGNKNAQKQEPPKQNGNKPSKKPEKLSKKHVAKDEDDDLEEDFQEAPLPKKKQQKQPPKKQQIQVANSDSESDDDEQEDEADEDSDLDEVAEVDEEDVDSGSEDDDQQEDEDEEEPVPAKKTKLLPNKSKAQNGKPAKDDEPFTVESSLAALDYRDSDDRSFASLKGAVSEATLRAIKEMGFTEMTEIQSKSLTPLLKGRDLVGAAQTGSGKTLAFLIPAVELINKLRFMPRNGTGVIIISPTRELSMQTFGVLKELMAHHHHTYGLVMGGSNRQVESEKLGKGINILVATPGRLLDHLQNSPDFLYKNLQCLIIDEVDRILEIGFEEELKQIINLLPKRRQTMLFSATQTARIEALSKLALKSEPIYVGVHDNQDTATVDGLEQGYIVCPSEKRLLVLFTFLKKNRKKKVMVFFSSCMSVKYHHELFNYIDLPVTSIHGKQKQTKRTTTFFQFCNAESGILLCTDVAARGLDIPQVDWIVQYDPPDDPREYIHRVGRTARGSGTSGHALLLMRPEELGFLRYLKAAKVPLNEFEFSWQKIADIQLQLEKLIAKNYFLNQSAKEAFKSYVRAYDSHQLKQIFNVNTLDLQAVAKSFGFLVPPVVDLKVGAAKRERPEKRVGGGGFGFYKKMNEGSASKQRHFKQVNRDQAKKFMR

B1: purified HP1a, wild type (HP1a^WT) (natural protein, Drosophila melanogaster, UniProt P05205 1-206, looked up)
chain: MGKKIDNPESSAKVSDAEEEEEEYAVEKIIDRRVRKGKVEYYLKWKGYPETENTWEPENNLDCQDLIQQYEASRKDEEKSAASKKDRPSSSAKAKETQGRASSSTSTASKRKSEEPTAPSGNKSKRTTDAEQDTIPVSGSTGFDRGLEAEKILGASDNNGRLTFLIQFKGVDQAEMVPSSVANEKIPRMVIHFYEERLSWYSDNED
notes: HP1a, Drosophila melanogaster; It speaks of HP1a dimers, but no dimerisation experiment is done here
Regarding B1, the binding result is “binds”.

The values are drawn from article PMC12717012, “Hierarchical interactions between nucleolar and heterochromatin condensates are mediated by a dual-affinity protein” (Nature Cell Biology, 2025).
